Values of other authors, collected in article PMC5123080.

Molecular target: UNC5B ECD (Mus musculus) (UniProt Q8K1S3)
Sequence of UniProt Q8K1S3 (Q8K1S3 27-377): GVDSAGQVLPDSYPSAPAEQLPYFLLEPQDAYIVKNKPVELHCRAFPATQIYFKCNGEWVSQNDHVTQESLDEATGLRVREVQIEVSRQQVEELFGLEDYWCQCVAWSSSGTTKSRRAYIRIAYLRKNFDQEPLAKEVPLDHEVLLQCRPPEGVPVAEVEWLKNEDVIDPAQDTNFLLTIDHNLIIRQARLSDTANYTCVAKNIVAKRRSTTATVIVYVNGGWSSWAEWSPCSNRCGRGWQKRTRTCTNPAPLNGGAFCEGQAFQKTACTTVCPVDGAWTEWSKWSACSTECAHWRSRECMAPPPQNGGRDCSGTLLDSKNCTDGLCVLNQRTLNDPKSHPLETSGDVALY

## Robo4 ECD (from UniProt Q8C310)
  Kd: 12 nM
